In patent US7838288B2, “Modulators of odorant receptors” (Duke University, priority 2004, dated 2010):

System: MOR23-1
Test: CRE-luciferase reporter gene assay, MOR23-1
Format: cell-based, mouse
Conditions: 293T cells expressing RTP1 variant
Procedure: Four ORs (S6/79, S18, S46 and S50) previously assayed using other techniques (see, e.g., Malnic, B., et al. (1999) Cell 96, 713-723; herein incorporated by reference in its entirety) were tested against an assay panel of aliphatic alcohols, aldehydes and acids and some other odorants. Additionally, five “orphan” class I ORs (MOR23-1, MOR31-4, MOR31-6, MOR32-5 and MOR32-11) whose cognate ligands were unknown were tested. At a suprathreshold concentration of 100 uM, all these ORs were odorant selective, responding to only a small subset of the odorants tested (see FIG. 11A). This specificity was retained at lower, more physiologically relevant concentrations. Many of these ORs responded to odorants present in micromolar concentrations. The cell-surface expression of these ORs by living-cell immunofluorescence were evaluated. Some ORs (S18, MOR31-4, MOR31-6 and MOR32-5) were strongly expressed while other ORs (S6, S50, MOR23-1, MOR32-11) were weakly expressed (see FIG. 12). […]
Dual-Glo system (Promega) for luciferase assay was used. […] Luminescence was measured using Wallac Victor 1420 (Perkin-Elmer). Normalized luciferase activity was calculated as [Luc (N)-Luc (0)]/RL (N), where Luc (N)=Luminescent count of a certain well, Luc (0)=Luminescent count without odorant for each OR, and RL (N)=Luminescent count of Renilla Luciferase of each well. […]

B1: RTP1-A1: RTP1 variant from deleting portions of RTP1-A; murine SEQ ID NO: 46, human SEQ ID NO: 47 (protein, listed as Mus musculus)
chain: MCKSVTTGEWKKVFYEKMEEVKPADSWDFIIDPNLKHNVLAPGWKQYLELHASGRFHCSWCWHTWQSPHVVILFHMYLDKAQRAGSVRMRVFKQLCYECGTARLDESSMLEENIESLVDNLITSLREQCYGERGGHYRIHVASRQDNRRHRGEFCEACQEGIVHWKPSEKLLEEEATTYTFSRAPSPTKPQAETGSGCNFCSIPWCLFWATVLMLIIYLQFSFRTSV
23-1 activity as indicated by luciferase expression: Increased enhancement
